The data set in a line: label from the status in PepcDB records.

“MDFGTQGPQAPAELAWLRGVDAYTMGAYPQAEEEFRAAVRIDPTMADGWLGLHALRVDTTNALLRMFRNRDRFGEQRARHRRTLNSWYWLGWWVQPVLENPRDLLLAHASHWLDGRHVPELDRALAGLPPVDSDAQVRFLHACRAYLVKDWEQLVRHTDPLLGDPLLGIEAGLFSGMARVRLEMYGQAEPLLSAALMRCRSEQPQRKELRYWLARAHEGTGRSAAALPLYRAVHRVDPAFMDTSARLAAIAEGDGYDDPADLTGYAQAGAGTDGLDGLDPLFGTEERGVKVSAPEPALSAPLPPLGGPSVREKAGGPDPSLPSGPTDPALLEEALAELERMVGLEPVKRQVKALSAQLNMARLRAGQGLPVQPPKRHFVFSGPSGTGKTTVARILGRVFYALGLLGGDHLVEAQRADLVGEYLGQTAVKANELIDSALGGVLFVDEAYSLSNSGYGKGDAYGDEALQVLLKRAEDNRDHLVVILAGYPEGMDRLLGANPGLSSRFTTRVDFPSYRPLELTSIGEVLAAENGDVWDEEALDELRSIAGHVVDQGWIDELGNGRFLRTLYEKSCAYRDLRLSVYPGALTRDDLATLRLPDLMQAYGEVLSGRGPGGPSAG”: the protein production entry is reported as “failed”.
Regarding “MDFHIRKATNSDAEAIQHVATTSWHHTYQDLIPSDVQDDFLKRFYNVETLHNRISATPFAVLEQADKVIGFANFIELEKGKSELAAFYLLPEVTQRGLGTELLEVGMTLFHVPLPMFVNVEKGNETAIHFYKAKGFVQVEEFTEDFYGYPLETIRFNLNH”, the protein production entry is on record as “not failed”.
For “MDFKQRHTWLKIASCKSISAKKRASIWQKLTEFDQYEMTTQTFAESFFPVDKLAQILMELETAEACFFDDVTLIWILDDAYPALLREIYEAPPILFCKGNIDLLQQQAIAIVGTRQMSEYGRKACMKIASELAENKLTIVSGMAIGIDSTAHRATLNKQGATIAVLGSGVNKVYPKKNELLAKEIVKEGLLLSEYLPDEEAKRWHFPERNRIISGLAIGTVIIEAAERSGSLITADIALEQNRQVFAVPGNIFIDTWQGTNYLIQEGAKLVMNSNNIIEEFIQIKP” the value was “failed”; for “MDFLARATAIVGNTMVLMRRFGSPGTQAIGQSPAIPEAQKQGIMTLKMPAAKGWAPGHLPTPAPGLKVNAFARDLEHPRWIEVLPSGDVLVAEARQLPTPPKTLLDRAAQATMRRIRALGDSPNRITLLRDPDGRGEAQERETFLENQSQPFGMALVGDTFYVGNTDGIMAFPYRPGATRLEGPGRRLTTFKPGGHWTRSLIVSPDGRRIYAGVGSLSNIGDDGMEAEEGRAAIWELDLASGQARIYASGLRNPVGLAWEPTTRVLWTVVNERDGLGDETPPDYLTSVEEDGFYGWPYCYWNRIVDDRVPQDPAMVARAITPDYALGGHTASLGLCWVPAGTLPGFGDGMAIGQHGSWNRSKLSGYRLIFVPFANGRPSGPPRDILTGFLSDDEKLAYGRPVGVAVGPDRRSLLLADDVGDVIWRVTGALEHHHHHH”, “failed”.
Consider “MDFPTISRSPSGPPAMDLEGPRDILVPSEDLTPDSQWDPMPGGPGSLSRMELDESSLQELVQQFEALPGDLVGPSPGGAPCPLHIATGHGLASQEIADAHGLLSAEAGRDDLLGLLHCEECPPSQTGPEEPLEPAPRLLQPPEDPDEDSDSPEWVEGASAEQEGSRSSSSSPEPWLETVPLVTPEEPPAGAQSPETLASYPAPQEVPGPCDHEDLLDGVIFGARYLGSTQLVSERNPPTSTRMAQAREAMDRVKAPDGETQPMTEVDLFVSTKRIKVLTADSQEAMMDHALHTISYTADIGCVLVLMARRRLARRPAPQDHGRRLYKMLCHVFYAEDAQLIAQAIGQAFAAAYSQFLRESGIDPSQVGVHPSPGACHLHNGDLDHFSNSDNCREVHLEKRRGEGLGVALVESGWGSLLPTAVIANLLHGGPAERSGALSIGDRLTAINGTSLVGLPLAACQAAVRETKSQTSVTLSIVHCPPVTTAIIHRPHAREQLGFCVEDGIICSLLRGGIAERGGIRVGHRIIEINGQSVVATPHARIIELLTEAYGEVHIKTMPAATYRLLTGQEQPVYL”, for which the protein production entry is reported as “not failed”.
To “MDFQHRPGGKTGSGGVASSSESNRDRRERLRQLALETIDINKDPYFMKNHLGSYECKLCLTLHNNEGSYLAHTQGKKHQTNLARRAAKEAKEAPAQPAPEKVKVEVKKFVKIGRPGYKVTKQRDSEMGQQSLLFQIDYPEIAEGIMPRHRFMSAYEQRIEPPDRRWQYLLMAAEPYETIAFKVPSREIDKAEGKFWTHWNRETKQFFLQFHFKMEKPPAPPSLPAGPPGVKRPPPPLMNGLPPRPPLPESLPPPPPGGLPLPPMPPTGPAPSGPPGPPQLPPPAPGVHPPAPVVHPPASGVHPPAPGVHPPAPGVHPPAPGVHPPTSGVHPPAPGVHPPAPGVHPPAPGVHPPAPGVHPPAPGVHPPPSAGVHPQAPGVHPAAPAVHPQAPGVHPPAPGMHPQAPGVHPQPPGVHPSAPGVHPQPPGVHPSNPGVHPPTPMPPMLRPPLPSEGPGNIPPPPPTN” belongs “failed”; to “MDFSKAFGLVYKALDYRSLRQDMIASNIANVDTPFYRPKDLDFESVLAKKKAEIFENQSSKVLPLAHTNPRHLDFENSAKDGASLFFRDGHLAKNDGNSVDLDIETSEMGKNSTMYLALSSALKKYRGVINYAIDSSKNL”, “failed”; to “MDFSQLGGLLDGMKKEFSQLEEKNKDTIHTSKSGGGMVSVSFNGLGELVDLQIDDSLLEDKEAMQIYLMSALNDGYKAVEENRKNLAFNMLGNFAKL”, “not failed”.
To “MDFVPKILGNVVLLLSAGLNWTAMRVFAGRRPHVPGLLAGAGIWLILCVVPAFYQSMPVRVSVYSLLAAAYGVLTLLEFWRSRQQLEVAYMPAVVLTLLHTMYYIVRAVVDQGVAMDQALKGYGAGVPLFSFMLFESMLYVIGIAYVTLCMVKERVELRFKAAAFCDALTGIGNRRAFMVNGERMLIECQRRCSPMALLLCDLDHFKRLDDAYGHQTGDQVLVAFSQVLAETLGTKDVYARIGGEEFACLLAATDEQAAVTVAERVRQAFARLPLLEPGLLSVSIGVVSSETRGYDLPRLLSLADEALYDAKHQGRNRVHTVSRSALELQPD” belongs “failed”.
Turning to “MDFVPSLPTLIAFTIAILLLAVTPGPDMTLWISRSLREGRAAGFMTLVGTNIGITVHTMLVAFGVAALIVASPTAFMILKTGGAAYLVWLAIQAIRKGSDFVMVKSTGEKAQASLKSALLNGIWVNLLNPKVIIFFMTFLPQFVSATDPHVTGKLIFLGIWSIIVALPIGIGIVVTADILSAWLQRNRKVLRGLDYTIAGVFSLFAVKIFFTQTR”, the protein production result is “failed”.
In the case of “MDFYQFAEYIVLNYGYFGIFLIAFTEAVIQPILPDIFIIGASAFGLDSVTCALVASFGSLTGGYTGYFLGKKLGTNVFLKIFKEKYFIKGKAFFEKFGVWGVAIAGFTPIPYKVFAWLAGIFKMNLVSFGAGTLLGRIPRFLLVAYFGYSLGLLFGLHTP”, the protein production result was “failed”.
For the sequence “MDGDFRTSFVREPAGLRPYPALVLNADYRPLSYYPLSLWPWQEAIKAAFLDRVSIVAEYDQVVRSQRAALRIPSVVVLKEFVSPQKRVAFTRFNLFLRDEFRCQYCGAKGDLTFDHVVPRARGGVTSWQNVVAACSPCNLHKGSKTLKQAGMRLARIPREPTPAEMQRHGQRFPPNHLHDSWLDYLYWDAELEALEHHHHHH”, the protein production result is listed as “failed”.
For “MDGHNQNQYQNQNQIQQSQQPPLKKYVTQRRSVDVSSPYINLYYNRRHGLPNLVVEPETSYTIDIMPPNAYRGRDRVINLPSKFTHLSSNKVKHVIPAIQWTPEGRRLVVATYSGEFSLWNASSFTFETLMQAHDSAVTTMKYSHDSDWMISGDADGMIKIWQPNFSMVKEIDAAHTESIRDMAFSSNDSKFVTCSDDNILKIWNFSNGKQERVLSGHHWDVKSCDWHPEMGLIASASKDNLVKLWDPRSGNCISSILKFKHTVLKTRFQPTKGNLLMAISKDKSCRVFDIRYSMKELMCVRDETDYMTLEWHPINESMFTLACYDGSLKHFDLLQNLNEPILTIPYAHDKCITSLSYNPVGHIFATAAKDRTIRFWTRARPIDPNAYDDPTYNNKKINGWFFGINNDINAVREKSEFGAAPPPPATLEPHALPNMNGFINKKPRQEIPGIDSNIKSSTLPGLSI” the value was “failed”; for “MDGSNVTSFVVEEPTNISTGRNASVGNAHRQIPIVHWVIMSISPVGFVENGILLWFLCFRMRRNPFTVYITHLSIADISLLFCIFILSIDYALDYELSSGHYYTIVTLSVTFLFGYNTGLYLLTAISVERCLSVLYPIWYRCHRPKYQSALVCALLWALSCLVTTMEYVMCIDREEESHSRNDCRAVIIFIAILSFLVFTPLMLVSSTILVVKIRKNTWASHSSKLYIVIMVTIIIFLIFAMPMRLLYLLYYEYWSTFGNLHHISLLFSTINSSANPFIYFFVGSSKKKRFKESLKVVLTRAFKDEMQPRRQKDNCNTVTVETVV”, “failed”; for “MDHGVVLLSDDQGLQWRQASSVPLSTPLTGVSFVDAKRGWAVGHWGAILITTDGGESWQVQRLATEEDRPLFAVHFFNARQGVAVGLWSLVLTTEDGGQTWSEQPLQAPPGAKRADLNLMGLFADSRGTLYATAEHGQVLHSEDQGKNWRYLDTGYEGTLWAGAVLADGRLLLGGQRGTLLQGSADGKGFHRVPTQSKGSVTCVAVAGSRVLAVGLDGLSVQSSDGGHSFQETQTADGLSLTAALFNAEGVPVLFSRRGVMPYQELEHHHHHH”, “failed”.
Consider “MDHKDLAQRILRDIGGEDNIVAAAHCATRLRLVLKDTKDVDRQSLDDDPDLKGTFETGGMFQIIVGPGDVDHVFKELDDATSKDIAVSTEQLKDVVANNANWFSRAVKVLADIFVPLIPILVGGGLLMAINNVLVAQDLFGPQSLVEMFPQISGVAEMINLMASAPFAFLPVLVGFTATKRFGGNEFLGAGIGMAMVFPSLVNGYDVAATMAAGEMPMWSLFGLDVAQAGYQGTVLPVLVVSWILATIEKFLHKRLKGTADFLITPVLTLLLTGFLTFIAIGPAMRWVGDVLAHGLQGLYDFGGPVGGLLFGLVYSPIVITGLHQSFPPIELELFNQGGSFIFATASMANIAQGAACLAVFFLAKSEKLKGLAGASGVSAVLGITEPAIFGVNLRLRWPFFIGIGTAAIGGALIALFNIKAVALGAAGFLGVVSIDAPDMVMFLVCAVVTFFIAFGAAIAYGLYLVRRNGSIDPDATAAPVPAGTTKAEAEAPAEFSNDSTIIQAPLTGEAIALSSVSDAMFASGKLGSGVAIVPTKGQLVSPVSGKIVVAFPSGHAFAVRTKAEDGSNVDILMHIGFDTVNLNGTHFNPLKKQGDEVKAGELLCEFDIDAIKAAGYEVTTPIVVSNYKKTGPVNTYGLGEIEAGANLLNVAKKEAVPATP”, for which the protein production entry is listed as “failed”.
Consider “MDHQFGYGVEVTGLSPSVTHNDLIDFFSFSGTIQDIDIVRSGEQACTAYVMFKDSYSQETAVLLTGATILDQRVCITRWGQHHEEFDFWNATSRGFEDESDSQHYAQRSEFNAGEAVTKAQEVVKIMLATGFVLGKDALSKAKAFDESHGVSAAAVARVSQLEQRIGLTDKIFTGLEAVRMTDQRYHVSDTAKSAVFATGRTAAAAATSVVNSSYFSSGALWLSGALERAAKAASDLGTRGSRQ”, for which the protein production result is “failed”.
Regarding “MDHTSPTYMLANLTHLHSEQLLQGLNLLRQHHELCDIILRVGDVKIHAHKVVLASVSPYFKAMFTGNLSEKENSEVEFQCIDETALQAIVEYAYTGTVFISQDTVESLLPAANLLQIKLVLKECCAFLESQLDPGNCIGISRFAETYGCRDLYLAATKYICQNFEAVCQTEEFFELTHADLDEIVSNDCLNVATEETVFYALESWIKYDVQERQKYLAQLLNSVRLPLLSVKFLTRLYEANHLIRDDRTCKHLLNEALKYHFMPEHRLSHQTVLMTRPRCAPKVLCAVGGKSGLFACLDSVEMYFPQNDSWIGLAPLNIPRYEFGICVLDQKVYVIGGIATNVRPGVTIRKHENSVECWNPDTNTWTSLERMNESRSTLGVVVLAGELYALGGYDGQSYLQSVEKYIPKIRKWQPVAPMTTTRSCFAAAVLDGMIYAIGGYGPAHMNSVERYDPSKDSWEMVASMADKRIHFGVGVMLGFIFVVGGHNGVSHLSSIERYDPHQNQWTVCRPMKEPRTGVGAAVIDNYLYVVGGHSGSSYLNTVQKYDPISDTWLDSAGMIYCRCNFGLTAL”, the protein production result is reported as “failed”.

The values above are taken from a protein production outcome set (Wang et al. 2014).
